Molecular target: Rad52^ΔN* (Saccharomyces cerevisiae)
Assay: mass photometry

stoichiometry N: 1
Substance: Saccharomyces cerevisiae Rad51 (from UniProt P25454 1-400) (natural protein)

From PMC11580989
